Results taken from patent US20200256882A1, “FLUID PROPERTY MEASUREMENT DEVICES AND METHODS” (Abram Scientific, Inc., priority 2019, published 2020).

Tested on: whole blood samples (extrinsic coagulation pathway)
Assay: Thromboelastogram (TEG) coagulation test on disposable test strip
Type: biochemical
Details: blood samples with increasing concentrations, 0 to 1.8 nM; FIG. 19(b)
Experimental: The disposable test strips used in this example were incorporated with a reagent comprising of rabbit brain thromboplastin (Pacific Hemostasis Prothrombin Time reagent, Thromboplastin-DS, Product# 29-227-3), calcium chloride (25 mM) and Tween (2% v/v aqueous solution). Prior to the final assembly of the strip, the reagent was incorporated by dispensing the solution on to the exposed hydrophilic surface in the bottom stack, followed by air-drying in a drying box with humidity control at standard room temperature and pressure. The ratio of the volume of the reagent to blood tested in the chamber was maintained at close to 2:1 to ensure successful initiation of the blood coagulation reaction. […] Lastly, in some tests, blood samples were also tested using 2 Haemonetics' TEG-5000 instruments (2 tests per instrument) and their corresponding TEG curve & parameters were recorded, in order to perform side-by-side comparison with the results generated using the disposable test strips. Results: • In this example, the oscillation characteristics (amplitude and phase) of the in-plane vibration mode of a physical element in single-use disposable test strips were measured as a function of frequency in the vicinity of the resonance frequency, and these amplitude & phase frequency scans were monitored periodically to determine different aspects of the blood coagulation cascade. […]

B1: tPA: tissue plasminogen activator, enhances the external fibrinolysis process (protein, UniProt P00750 36-562, looked up)
Tissue-type plasminogen …: SYQVICRDEKTQMIYQQHQSWLRPVLRSNRVEYCWCNSGRAQCHSVPVKSCSEPRCFNGGTCQQALYFSDFVCQCPEGFAGKCCEIDTRATCYEDQGISYRGTWSTAESGAECTNWNSSALAQKPYSGRRPDAIRLGLGNHNYCRNPDRDSKPWCYVFKAGKYSSEFCSTPACSEGNSDCYFGNGSAYRGTHSLTESGASCLPWNSMILIGKVYTAQNPSAQALGLGKHNYCRNPDGDAKPWCHVLKNRRLTWEYCDVPSCSTCGLRQYSQPQFRIKGGLFADIASHPWQAAIFAKHRRSPGERFLCGGILISSCWILSAAHCFQERFPPHHLTVILGRTYRVVPGEEEQKFEVEKYIVHKEFDDDTYDNDIALLQLKSDSSRCAQESSVVRTVCLPPADLQLPDWTECELSGYGKHEALSPFYSERLKEAHVRLYPSSRCTSQHLLNRTVTDNMLCAGDTRSGGPQANLHDACQGDSGGPLVCLNDGRMTLVGIISWGLGCGQKDVPGVYTKVTNYLDWIRDNMRP
  fibrinolysis rate Lys-Rate: increasing trend
